Experimental data reported in publication PMC5935755.

Biological target: ClpXP (ClpX ΔN-ter hexamer with ClpP tetradecamer) (UniProt P0A6H1)

Row | Substance | KM of ClpXP-mediated proteolysis (Michaelis-Menten analysis, loss of GFP fluorescence; 0.3 µM ClpX6, 0.9 µM ClpP14, 30 °C) [µM]
1 | GFP-BAP1 (UCH domain, residues 1-238, ssrA-tagged) (from UniProt Q92560 1-238) | 0.64
2 | GFP-UCHL1 (ssrA-tagged) | 3.67
3 | GFP-UCHL1_(I93M) (ssrA-tagged) | 4.47
4 | GFP-UCHL3 (ssrA-tagged) | 2.59
5 | GFP-UCHL5 (UCH domain, residues 1-240, ssrA-tagged) (from UniProt Q9Y5K5 1-240) | 1.85
